Experiment [1] has as its target T1, recombinant human RANKL (human, UniProt O14788 136-317).
T1 sequence: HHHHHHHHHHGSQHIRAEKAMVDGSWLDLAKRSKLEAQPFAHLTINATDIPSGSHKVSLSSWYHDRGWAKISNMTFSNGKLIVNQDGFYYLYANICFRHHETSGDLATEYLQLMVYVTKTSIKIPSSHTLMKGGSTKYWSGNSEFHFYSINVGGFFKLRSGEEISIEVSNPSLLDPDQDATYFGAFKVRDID
In words: cell-based or functional assay.

The target in experiment [2] is T1, recombinant human RANKL. Description: ELISA, scFv supernatant on coated hRANKL, anti-c-myc-HRP. On the procedure: For VH, VL libraries, 5×96 clones selected randomly from SOBAG cloning plates obtained in the third round and the fourth round are vaccinated on 96-deep-well plates respectively, 400 μl 2×YT-AG medium is contained in each well, the bacterial liquid is cultivated with shaking, at 30° C., 200 rpm overnight. The next day, the bacterial liquid on the deep-well plate is transferred by 1:50 to a new 96-deep-well plate containing 400 μl 2×YT-AG fresh medium. The bacterial liquid is cultivated with shaking at 37° C., 200 rpm until OD600 is about 0.8 (for about 3 hours). The bacterial is collected through 1500 g centrifugation for 10 minutes, the supernatant is removed, and the bacterial is resuspended with 400 μl of sterile fresh 2×YT-AI (I refers to IPTG, with a final concentration of […]) culture medium, the suspension is cultivated with shaking at 30° C., 200 rpm overnight (that is, the expression of scFv is induced overnight). The expressed inductively scFv supernatant on the deep-well plate is centrifuged at 3000 g for 20 min, 300 μl supernatant is transferred to a clean 96-well cell plate for backup.
The plates are washed three times with PBST (containing 0.05% Tween 20). The plates are closed with blocking solution (PBS solution containing 2% (WN) of BSA) for 1˜1.5 hours at room temperature. […] The closed microtiter plate is incubated for 2 hours at room temperature, washed three times with PBST.

Experiment [3] concerns the target T1, recombinant human RANKL. In words: cell-based or functional assay. The source holds these as a separate data set.
Experiment [4] deals with T1, recombinant human RANKL. In words: cell-based or functional assay. This is another data set of the same source.

B1: 114-6.6.29 (antibody, V domains shown)
VH: DVKLVESGGGLVKPGGSLKLSCAASGFTFSSYTMSWVRQTPEKRLEWVATISSGGSYTYYPDSVKGRFTISRDNAKNTLYLQMSSLKSEDTAMYYCTRDWDYYGTTYVGGYAMDYWGQGTSVTVSS
VL: DVLMTQTPLSLPVSLGDQASISCRSSQSIVHSNGNTYLEWYLQKPGQSPKLLIYKVSNRFSGVPDRFSGSGSGTDFTLKISRVEAEDLGVYYCFQGSHVPWTFGGGTKLEIK
For B1, the “EC50 value (ng/ml), inhibiting the cellular differentiation of RAW264.7 induced by human RANKL” value with recombinant human RANKL [1] worked out at 799 ng/mL.

B2: pFL249-L10u (scFv)
scFv: QVQLQQSGAELASPGASVKLSCKASGYTFTTYWLQWVKQRPGQGLEWIGAIYPGPGNTKYTQKFKDKATLTADKSASTAYMQLNSLTSEDSAVYYCARRGSRRGIAYWGQGTLVTVSAASSGGGGSGGGGSGGGGSSNIVLTQSPASLSVSLGQRATISCRASESVDSYGRSFMHWYQQRPGQAPKLLIYLASNLESGVPARFSGSGSRTDFTLTISSVEAEDEATYYCQQDNEDPYTFGGGTKLEIK
notes: scFv in IPTG-induced E. coli supernatant, screened by ELISA; also called L10u scFv clone of the VL library; not shown: c-myc tag and his tag of vector pFL249
For B2, in the experiment with recombinant human RANKL [2], the binding result is listed as “binds”.

B3: pFL249-L10 (scFv)
scFv: QVQLQQSGAELASPGASVKLSCKASGYTFTTYWLQWVKQRPGQGLEWIGAIYPGPGNTKYTQKFKDKATLTADKSASTAYMQLNSLTSEDSAVYYCARRGSRRGIAYWGQGTLVTVSAASSGGGGSGGGGSGGGGSSNIVLTQSPASLSVSLGQRATISCRASESVDSYGRSFMHWYQQRPGQAPRLLIYLASNLESGVPARFSGSGSRTDFTLTISSVEAEDEATYYCQQDNEDPYTFGGGTKLEIK
notes: scFv in IPTG-induced E. coli supernatant, screened by ELISA; also called L10 scFv clone of the VL library; not shown: c-myc tag and his tag of vector pFL249
Consider B3, for which the binding result with recombinant human RANKL [2] was “binds”.

B4: pFL249-L37u (scFv)
scFv: QVQLQQSGAELASPGASVKLSCKASGYTFTTYWLQWVKQRPGQGLEWIGAIYPGPGNTKYTQKFKDKATLTADKSASTAYMQLNSLTSEDSAVYYCARRGSRRGIAYWGQGTLVTVSAASSGGGGSGGGGSGGGGSSNIVLTQSPASLSVSLGQRATISCRASESVDSYGRSFMHWYQQKPGQAPKLLIYLASNLESGVPSRFSGSGSRTDFTLTISRVEAEDAATYYCQQDNEDPYTFGGGTKLEIK
notes: scFv in IPTG-induced E. coli supernatant, screened by ELISA; also called L37u scFv clone of the VL library; not shown: c-myc tag and his tag of vector pFL249
Consider B4, for which, in the experiment with recombinant human RANKL [2], the binding result is given as “binds”.

B5: pFL249-L37 (scFv)
scFv: QVQLQQSGAELASPGASVKLSCKASGYTFTTYWLQWVKQRPGQGLEWIGAIYPGPGNTKYTQKFKDKATLTADKSASTAYMQLNSLTSEDSAVYYCARRGSRRGIAYWGQGTLVTVSAASSGGGGSGGGGSGGGGSSNIVLTQSPASLSVSLGQRATISCRASESVDSYGRSFMHWYQQKPGQAPKLLIYLASNLESGVPSRFSGSGSRTDFTLTISAVEAEDAATYYCQQDNEDPYTFGGGTKLEIK
notes: scFv in IPTG-induced E. coli supernatant, screened by ELISA; also called L37 scFv clone of the VL library; not shown: c-myc tag and his tag of vector pFL249
With B5, the binding result in the experiment with recombinant human RANKL [2] was “binds”.

B6: 114-5.7.14 (antibody, V domains shown)
VH: EVQLQQSGAELVKPGASVKLSCTASGFKIKDTYMHWVRQRPEQGLEWIGRIDSANGNIKYDPKFQGKATITADTSSKTAYLHLSSLTFEDTAVYYCSRPKSNYDFWLPYWGQGTLVTVSA
VL: DIQMTQTTSSLSASLGDRVTISCSASQGISNYLNWYQQKPDGTVKLLIYYTSSLHSGVPSRFSGSGSGTDYSLTISNLEPEDIATYYCQQYSKLPLTFGAGTKLELK
Consider B6, for which the “EC50 value (ng/ml), inhibiting the cellular differentiation of RAW264.7 induced by human RANKL” value with recombinant human RANKL [1] worked out at 315 ng/mL.

B7: 114-2.222 (antibody, V domains shown)
VH: EVQLQQSGAELVKPGASVKLSCTTSGFNIKATYIHWVQQRPEQGLEWIGRIDPANGNTKYDSKFQGKATITADTSSNTAYLQLSSLTSEDTAVYFCARSLHYYVFFDYWGQGTTLTVSS
VL: DIQMTQTTSSLSASLGDRVTISCSASQGISNYLNWYQQKPDGTVKLLIYSTSSLHSGVPSRFSGSGSGTDYSLTISSLEPEDIATYYCQQYSKLPLTFGAGTKLELKR
On to B7, for which the “EC50 value (ng/ml), inhibiting the cellular differentiation of RAW264.7 induced by human RANKL” value with recombinant human RANKL [1] amounted to 311 ng/mL.

B8: 114-5.9.4 (antibody, V domains shown)
VH: EVQLQQSGAELVKPGASVKLSCTASGFNLKGTYIHWVKQRPGQGLEWIGRIDPANANTKYDPKFQGKATIRTDTSSNTAYLQLSSLTSEDTAVYFCSSPSGHYDVWFAYWGQGTLVTVSP
VL: DIQMTQPTSSLSASLGDTVTISCSASQDISNYLNWYQQKPDGTLKLLIYYTSSLHSGVPSRFSGSGSGTDYSLTISNLEPEDIATYYCQQFSKLPLTFGAGTKLELKR
B8: in the experiment with recombinant human RANKL [1], the “EC50 value (ng/ml), inhibiting the cellular differentiation of RAW264.7 induced by human RANKL” value amounted to 340 ng/mL.

B9: 114-2.402 (antibody, V domains shown)
VH: EVQLQQSGTELVKPGASVKLSCTLFGFNIKATYMHWVRQRPEQGLEWIGRIDPPNGNTKYDPKFQDKATIKVDTSSNTAYLQLSSLTSEDTAVYYCAREFNRYDVWLAYWGQGTLVTVSA
VL: DIQMTQTTSSLSASLGDRVTISCSASQGVSNYLNWYQQKPDGTVKLLIYSTSSLHSGVPSRFSGSGSGTDYSLTISNLEPEDVATYYCQQYSKLPFTFGSGTKLEIKR
Take B9: in the experiment with recombinant human RANKL [1], the “EC50 value (ng/ml), inhibiting the cellular differentiation of RAW264.7 induced by human RANKL” value was determined as 396 ng/mL.

B10: 114-7.38.48 (antibody, V domains shown)
VH: DVQLQESGPDLVKPSQSLSLTCTVTGYSITSAYSWHWIRQFPGNKLEWMGYIHFSGVTNYNPSLKSRISITRDASKNQFFLQLSSVTTEDTATYYCATRRETGFTYWGQGTLVTVSA
VL: DIVLTQSPATLSVTPGDSVSLSCRASQSISKNLHWYQQKSHESPRLLIKYASQSISGIPSRFSGSGSGTDFTLSINSVETEDFGIYFCQQINSWPLTFGAGTKLELK
For the molecule B10, the “EC50 value (ng/ml), inhibiting the cellular differentiation of RAW264.7 induced by human RANKL” value in the experiment with recombinant human RANKL [1] came to 585 ng/mL.

B11: 114-7.19.12 (antibody, V domains shown)
VH: QVQLQQSGAELASPGASVKLSCKASGYTFTTYWLQWVKQRPGQGLEWIGAIYPGPGNTKYTQKFKDKATLTADKSASTAYMQLNSLTSEDSAVYYCARRGSRRGIAYWGQGTLVTVSA
VL: NIVLTQSPASLAVSLGQRATISCRASESVDSYGRSFMHWYQQRPGQPPTLLIYLASNLESGVPVRFSGSGSRTDFTLTIDPVEADDAATYYCQQDNEDPYTFGGGTKLEIK
Regarding B11, in the experiment with recombinant human RANKL [1], the “EC50 value (ng/ml), inhibiting the cellular differentiation of RAW264.7 induced by human RANKL” value came out at 267 ng/mL.

B12: 114-7.37.26 (antibody, V domains shown)
VH: QVQLQQSGAELASPGASVKLSCKTSGYTFTTYWLQWVKQRPGQGLEWIGAIYPGPGNTKYTQKFKDKATLTADKSASTAYMQLSSLTSEDSAVYYCARRGSRRGIAYWGQGTLVTVSA
VL: NIVLTQSPASLAVSLGQRATISCRASESVDSYGRSFMHWYQQRPGQPPTLLIYLASNLESGVPARFSGSGSRTDFTLTIDPVEADDAATYYCQQDNEDPYTFGGGTKLEIK
B12: the “EC50 value (ng/ml), inhibiting the cellular differentiation of RAW264.7 induced by human RANKL” value with recombinant human RANKL [1] amounted to 470 ng/mL.

B13: G12 (antibody, human IgG2, kappa, V domains shown)
VH: QVQLVQSGAELKKPGASVKLSCKASGYTFTTYWLQWVRQAPGQGLEWMGAIYPGPGNTKYTQKFKDRFTITADTSKSTAYMQLNSLKSEDSAVYYCARRGSRRGIAYWGQGTLVTVSA
VL: NIVLTQSPASLSVSLGQRATISCRASESVDSYGRSFMHWYQQRPGQAPKLLIYLASNLESGVPARFSGSGSRTDFTLTISSVEAEDEATYYCQQDNEDPYTFGGGTKLEIKG
B13: in the experiment with recombinant human RANKL [3], the “IC50 (ng/ml) in RAW264.7 cells, osteoclast differentiation induced by RANKL” value was around 1060 ng/mL.

B14: G15 (antibody, human IgG2, kappa, V domains shown)
VH: QVQLVQSGAEVKKPGASVKVSCKASGYTFTTYWLQWVRQAPGQGLEWMGAIYPGPGNTKYTQKFKDRVTITADESTSTAYMELSSLRSEDTAVYYCARRGSRRGIAYWGQGTLVTVSA
VL: NIVLTQSPASLSVSLGQRATISCRASESVDSYGRSFMHWYQQRPGQAPRLLIYLASNLESGVPARFSGSGSRTDFTLTISSVEAEDEATYYCQQDNEDPYTFGGGTKLEIKG
B14: in the experiment with recombinant human RANKL [4], the “IC50 for inhibiting hRANKL induced RAW264.7 cell differentiation” value amounted to 257 ng/mL.

B15: G4 (antibody, human IgG2, kappa, V domains shown)
VH: QVQLVQSGAELKKPGASVKLSCKASGYTFTTYWLQWVRQAPGQGLEWMGAIYPGPGNTKYTQKFKDRFTITADKSKSTAYMQLNSLKSEDSAVYYCARRGSRRGIAYWGQGTLVTVSA
VL: NIVLTQSPASLSVSLGQRATISCRASESVDSYGRSFMHWYQQRPGQAPKLLIYLASNLESGVPARFSGSGSRTDFTLTISSVEAEDEATYYCQQDNEDPYTFGGGTKLEIKG
For the molecule B15, in the experiment with recombinant human RANKL [3], the “IC50 (ng/ml) in RAW264.7 cells, osteoclast differentiation induced by RANKL” value was around 1080 ng/mL.

B16: G10 (antibody, human IgG2, kappa, V domains shown)
VH: QVQLVQSGAELKKPGASVKLSCKASGYTFTTYWLQWVRQAPGQGLEWMGAIYPGPGNTKYTQKFKDRFTITADTSKSTAYMQLNSLKSEDSAVYYCARRGSRRGIAYWGQGTLVTVSA
VL: NIVLTQSPASLSVSLGQRATISCRASESVDSYGRSFMHWYQQRPGQAPRLLIYLASNLESGVPARFSGSGSRTDFTLTISSVEAEDEATYYCQQDNEDPYTFGGGTKLEIKG
As for B16, the “IC50 (ng/ml) in RAW264.7 cells, osteoclast differentiation induced by RANKL” value with recombinant human RANKL [3] is 695 ng/mL.
